The source of these data is article PMC7865074.

To fix the notation:
B1: Ligand of Numb protein X 2, PDZ domain 2 (N2H construct) (domain or fragment)
chain: QVALHKRDSGEQLGIKLVRRTDEPGVFILDLLEGGLAAQDGRLSSNDRVLAINGHDLKYGTPELAAQIIQASGERVNLTIARPG
B2: T-lymphoma invasion and metastasis-inducing protein 2, PDZ domain (N2H construct) (domain or fragment)
chain: DVQLTKTGSVCDFGFAVTAQVDERQHLSRIFISDVLPDGLAYGEGLRKGNEIMTLNGEAVSDLDLKQMEALFSEKSVGLTLIARPPD
B3: Partitioning defective 3 homolog B, PDZ domain 1 (N2H construct) (domain or fragment)
chain: TRTVEISGEGGPLGIHVVPFFSSLSGRILGLFIRGIEDNSRSKREGLFHENECIVKINNVDLVDKTFAQAQDVFRQAMKSPSVLLHVLP
B4: PDZ and LIM domain protein 1, PDZ domain (N2H construct) (domain or fragment)
chain: TQQIDLQGPGPWGFRLVGGKDFEQPLAISRVTPGSKAALANLCIGDVITAIDGENTSNMTHLEAQNRIKGCTDNLTLTVARSE
B5: SH3 and multiple ankyrin repeat domains protein 3, PDZ domain (N2H construct) (domain or fragment)
chain: VAVLQKRDHEGFGFVLRGAKAETPIEEFTPTPAFPALQYLESVDVEGVAWRAGLRTGDFLIEVNGVNVVKVGHKQVVALIRQGGNRLVMKVVSVT
B6: Rho GTPase-activating protein 21, PDZ domain (N2H construct) (domain or fragment)
chain: TVTLKRTSQGFGFTLRHFIVYPPESAIQFSYKDEENGNRGGKQRNRLEPMDTIFVKQVKEGGPAFEAGLCTGDRIIKVNGESVIGKTYSQVIALIQNSDTTLELSVMPKD
B7: PDZ domain-containing protein GIPC3, PDZ domain (N2H construct) (domain or fragment)
chain: EVEVTKTEDALGLTITDNGAGYAFIKRIKEGSIINRIEAVCVGDSIEAINDHSIVGCRHYEVAKMLRELPKSQPFTLRLVQ
B8: Protein piccolo, PDZ domain (N2H construct) (domain or fragment)
chain: RIKITRDSKDHTVSGNGLGIRIVGGKEIPGHSGEIGAYIAKILPGGSAEQTGKLMEGMQVLEWNGIPLTSKTYEEVQSIISQQSGEAEICVRLDL
B9: Zona Occludens 3; Tight Junction Protein 3, PDZ domain 1 (N2H construct) (domain or fragment)
chain: TATLSKDPRRGFGIAISGGRDRPGGSMVVSDVVPGGPAEGRLQTGDHIVMVNGVSMENATSAFAIQILKTCTKMANITVKRPR
B10: Rho guanine nucleotide exchange factor 12, PDZ domain (N2H construct) (domain or fragment)
chain: CVIIQKDDNGFGLTVSGDNPVFVQSVKEDGAAMRAGVQTGDRIIKVNGTLVTHSNHLEVVKLIKSGSYVALTVQGRPPGS
B11: Beta-1-syntrophin, PDZ domain (N2H construct) (domain or fragment)
chain: GVKVLKQELGGLGISIKGGKENKMPILISKIFKGLAADQTQALYVGDAILSVNGADLRDATHDEAVQALKRAGKEVLLEVKYMR
B12: Zona Occludens 3; Tight Junction Protein 3, PDZ domain 3 (N2H construct) (domain or fragment)
chain: DTRVVRFLKGKSIGLRLAGGNDVGIFVSGVQAGSPADGQGIQEGDQILQVNDVPFQNLTREEAVQFL
B13: Whirlin, PDZ domain 3 (N2H construct) (domain or fragment)
chain: LVRVKKSAATLGIAIEGGANTRQPLPRIVTIQRGGSAHNCGQLKVGHVILEVNGLTLRGKEHREAARIIAEAFKTKDRDYIDFL
B14: MPDZ, PDZ domain 6 (N2H construct) (domain or fragment)
chain: TINIAKGNSSLGMTVSANKDGLGMIVRSIIHGGAISRDGRIAIGDCILSINEESTISVTNAQARAMLRRHSLIGPDIKITYV
B15: Regulating synaptic membrane exocytosis protein 2, PDZ domain (N2H construct) (domain or fragment)
chain: DGSVPRDSGAMLGLKVVGGKMTESGRLCAFITKVKKGSLADTVGHLRPGDEVLEWNGRLLQGATFEEVYNIILESKPEPQVELVVSR
B16: 26S proteasome non-ATPase regulatory subunit 9, PDZ domain (N2H construct) (domain or fragment)
chain: QARDMAEAHKEAMSRKLGQSESQGPPRAFAKVNSISPGSPASIAGLQVDDEIVEFGSVNTQNFQSLHNIGSVVQHSEGKPLNVTVIRR
B17: PDZ domain-containing protein 4, PDZ domain (N2H construct) (domain or fragment)
chain: EVELYKSSHRDKLGLMVCYRTDDEEDLGIYVGEVNPNSIAAKDGRIREGDRIIQINGVDVQNREEAVAILSQEENTNISLLVARP
B18: Synaptojanin-2-binding protein, PDZ domain (N2H construct) (domain or fragment)
chain: EINLTRGPSGLGFNIVGGTDQQYVSNDSGIYVSRIKENGAAALDGRLQEGDKILSVNGQDLKNLLHQDAVDLFRNAGYAVSLRVQHRL
B19: SH3 and multiple ankyrin repeat domains protein 2, PDZ domain (N2H construct) (domain or fragment)
chain: TVVLQKKDNEGFGFVLRGAKADTPIEEFTPTPAFPALQYLESVDEGGVAWQAGLRTGDFLIEVNNENVVKVGHRQVVNMIRQGGNHLVLKVVTVT
B20: SH3 and multiple ankyrin repeat domains protein 1, PDZ domain (N2H construct) (domain or fragment)
chain: TVLLQKKDSEGFGFVLRGAKAQTPIEEFTPTPAFPALQYLESVDEGGVAWRAGLRMGDFLIEVNGQNVVKVGHRQVVNMIRQGGNTLMVKVVMVT
B21: Membrane-associated guanylate kinase, WW and PDZ domain-containing protein 2, PDZ domain 1 (N2H construct) (domain or fragment)
chain: ESVIGRNPEGQLGFELKGGAENGQFPYLGEVKPGKVAYESGSKLVSEELLLEVNETPVAGLTIRDVLAVIKHCKDPLRLKCVKQG
B22: PDZ domain-containing protein 2, PDZ domain 2 (N2H construct) (domain or fragment)
chain: KMELLKESDGLGIQVSGGRGSKRSPHAIVVTQVKEGGAAHRDGRLSLGDELLVINGHLLVGLSHEEAVAILRSATGMVQLVVASKE
B23: MAGUK p55 subfamily member 5, PDZ domain (N2H construct) (domain or fragment)
chain: IVRIEKARDIPLGATVRNEMDSVIISRIVKGGAAEKSGLLHEGDEVLEINGIEIRGKDVNEVFDLLSDMHGTLTFVLIPSQ

For the experiment, the target named is full-length (FL) NS5 protein (wt PBM) of West Nile virus (West Nile virus). Briefly: split reporter (BiFC, NanoBiT); N2H split-NanoLuc in HEK-293T cells; full-length NS5 with 257 single PDZ domains; read-out NLR with NS5 minus NLR with NS5ΔPBM, three experiments; hits > 0.25.
On to B1, for which the NLR(NS5) - NLR(NS5ΔPBM) turned out to be 0.25.
For B2, the NLR(NS5) - NLR(NS5ΔPBM) was determined as 0.65.
For B3, the NLR(NS5) - NLR(NS5ΔPBM) came out at 0.42.
For the molecule B4, the NLR(NS5) - NLR(NS5ΔPBM) was 27.2.
Turning to B5, the NLR(NS5) - NLR(NS5ΔPBM) is less than 0.25.
In the case of B6, the NLR(NS5) - NLR(NS5ΔPBM) was less than 0.25.
B7: the NLR(NS5) - NLR(NS5ΔPBM) stood at 2.15.
The value for B8 was 0.57; that for B9 was 3.05; that for B10 was less than 0.25.
On to B11, for which the NLR(NS5) - NLR(NS5ΔPBM) is less than 0.25.
In the case of B12, the NLR(NS5) - NLR(NS5ΔPBM) is 0.72.
As for B13, the NLR(NS5) - NLR(NS5ΔPBM) is 0.38.
The value for B14 was 0.38; that for B15 was 11.2; that for B16 was 1.21.
Consider B17, for which the NLR(NS5) - NLR(NS5ΔPBM) turned out to be 0.85.
In the case of B18, the NLR(NS5) - NLR(NS5ΔPBM) was less than 0.25.
For the molecule B19, the NLR(NS5) - NLR(NS5ΔPBM) was less than 0.25.
Take B20: the NLR(NS5) - NLR(NS5ΔPBM) came out at 1.66.
Consider B21, for which the NLR(NS5) - NLR(NS5ΔPBM) worked out at 0.26.
B22: the NLR(NS5) - NLR(NS5ΔPBM) worked out at 0.49.
Regarding B23, the NLR(NS5) - NLR(NS5ΔPBM) was 0.26.
